Measured values as given in paper PMC9250652, “Functional analysis of the dihydroflavonol 4-reductase family of Camellia sinensis: exploiting key amino acids to reconstruct reduction activity” (Horticulture Research, 2022).

Experiments:
Experiment in all cases: purified protein
Type in all cases: biochemical, Camellia sinensis
Settings in all cases: apparent Km, NADPH, 0.1 M potassium phosphate pH 7.0, 30 °C
[1] = substrate: O=C1c2c(O)cc(O)cc2O[C@H](c2ccc(O)cc2)[C@H]1O
[2] = substrate: O=C1c2c(O)cc(O)cc2O[C@H](c2ccc(O)c(O)c2)[C@H]1O
[3] = substrate: O=C1c2c(O)cc(O)cc2O[C@H](c2cc(O)c(O)c(O)c2)[C@H]1O

Row | Protein | Km [1] [µM] | Km [2] [µM] | Km [3] [µM]
1 | CsDFRc (Camellia sinensis) (protein) MEDTKSKLQEGSAVESLTTTTYCVTGATGYIGSWLVKSLLQRGYRVHATVRNQAKTLHLLPLWGGGDRLRVFRADLHKEGSFNEAVQGCSGVFHVAASMEFEVPAKEDIDSYVRANVIEPAINGTLNLLKSCLKTPSVRRVVFTSSISTMTAKDSAGKWRSVVDESCQNPIDRVWKTKTGAWVYVLSKLLTEEAAFQFANENSIDLVSVITTTVAGPFLTSTVPTSVQVLLSPITGDSKFSRILSAVNSRMGSIALVHIEDICSAHIFLMEHDGAEGRYICSAHSSVISQLVDHLAKEHPFSNMQRLVEEEHGSVPSEISSKKLRDLGFNFKFGLEDIIHHTVSSCVDCGFLCPTVN | 42.31 | 81.80 | 105.56
2 | CsDFRa (Camellia sinensis) (protein) MKDSVASATASAPGTVCVTGAAGFIGSWLVMRLLERGYIVRATVRDPANLKKVKHLLDLPKADTNLTLWKADLNEEGSFDEAIEGCSGVFHVATPMDFESKDPENEVIKPTINGVLSIIRSCTKAKTVKRLVFTSSAGTVNVQEHQQPVFDENNWSDLDFINKKKMTGWMYFVSKTLAEKAAWEAAKENNIDFISIIPTLVVGPFIMPTFPPSLITALSPITRNEGHYSIIKQGQFVHLDDLCESHIFLYERPQAEGRYICSSHDATIHDLAKLMREKWPEYNVPTEFKGIDKDLPVVSFSSKKLIGMGFEFKYSLEDMFRGAIDTCREKGLLPHSFAENPVNGNKV | 145.10 | 41.80 | 58.44
3 | CsDFRb1 (Camellia sinensis; C126T) (protein, only point mutants active) MEVVEVKNGYGGGGGTTVCVTGASGFIGSWLVMRLLQRGYYVRATVRDPDNTDKVKHLLDLPNATTHLSLWKADLDEDGSFDDAIQGCHGVFHVATPMNFVFVMDPENEYIKPTVDGVLNVMRSCTKAKTVKRIIYTSTMATIEYQQKPPSQYDESIWTDVDFCRARKMFAWMYLVAKTEAEKAAWKFAEDNGPDLITVHPCSVIGPFITPYKPPCTSMALALITKNKAFYPMLTQGHAVHVDDVCNAHIYLFEHPQAKGRYICSSHSFTILDLASSLSKKYPEYNIQTKFEDIDESLKPIPCPSKKLLDLGFKFKYNSDECDAGDLCAEAIEACKEKGQMPSL | 131.09 | 102.57 | 47.75
4 | CsDFRb1 (Camellia sinensis; N120S) (protein, only point mutants active) MEVVEVKNGYGGGGGTTVCVTGASGFIGSWLVMRLLQRGYYVRATVRDPDNTDKVKHLLDLPNATTHLSLWKADLDEDGSFDDAIQGCHGVFHVATPMNFVFVMDPENEYIKPTVDGVLSVMRSCCKAKTVKRIIYTSTMATIEYQQKPPSQYDESIWTDVDFCRARKMFAWMYLVAKTEAEKAAWKFAEDNGPDLITVHPCSVIGPFITPYKPPCTSMALALITKNKAFYPMLTQGHAVHVDDVCNAHIYLFEHPQAKGRYICSSHSFTILDLASSLSKKYPEYNIQTKFEDIDESLKPIPCPSKKLLDLGFKFKYNSDECDAGDLCAEAIEACKEKGQMPSL | 148.96 | 108.66 | 96.58
